Source: patent publication US20240116985A1 (published 2024)
Starred links: 1 amine or outer side, 2 acyl side, 3 side chain; linkers in the order of their positions; H or OH if unused. Positions of bridges follow the written chain, without caps; N, C: chain ends. Non-standard residues stand in square brackets, D forms with d. Primed or numbered codes have the meaning given here. *: point of attachment. B5(17) = 2,2-bis(4-pentenyl)glycine = 2-amino-2-(pent-4-en-1-yl)hept-6-enoic acid, stitching residue, C=CCCCC(CCCC=C)(N[*:1])C(=O)[*:2]; B5(4) = 2,2-bis(4-pentenyl)glycine = 2-amino-2-(pent-4-en-1-yl)hept-6-enoic acid (stitching residue), C=CCCCC(CCCC=C)(N[*:1])C(=O)[*:2]; B5(5) = 2,2-bis(4-pentenyl)glycine, 2-amino-2-(pent-4-en-1-yl)hept-6-enoic acid (stitching residue), C=CCCCC(CCCC=C)(N[*:1])C(=O)[*:2]; PyrS2 = (S)-3-amino-1-((pent-4-en-1-yloxy)carbonyl)pyrrolidine-3-carboxylic acid, C=CCCCOC(=O)N1CC[C@@](N[*:1])(C(=O)[*:2])C1; PyrS1 = (S)-3-amino-1-((but-3-en-1-yloxy)carbonyl)pyrrolidine-3-carboxylic acid, C=CCCOC(=O)N1CC[C@@](N[*:1])(C(=O)[*:2])C1; B5(12) = 2-amino-2-(pent-4-en-1-yl)hept-6-enoic acid (two olefin side chains), C=CCCCC(CCCC=C)(N[*:1])C(=O)[*:2]; B5(19) = 2-amino-2-(pent-4-en-1-yl)hept-6-enoic acid (bis(4-pentenyl)glycine), C=CCCCC(CCCC=C)(N[*:1])C(=O)[*:2]; Phe(3-COOH) = N[C@@H](Cc1cccc(C(=O)O)c1)C(=O)O; Phe(3,4-F2) = N[C@@H](Cc1ccc(F)c(F)c1)C(=O)O; Phe(2-Cl) = N[C@@H](Cc1ccccc1Cl)C(=O)O; Phe(3-F) = N[C@@H](Cc1cccc(F)c1)C(=O)O; Phe(4-F) = N[C@@H](Cc1ccc(F)cc1)C(=O)O; Bta = N[C@@H](Cc1csc2ccccc12)C(=O)O; Lys(iPr) = CC(C)NCCCC[C@H](N)C(=O)O; αAllylPro = C=CC[C@@]1(C(=O)O)CCCN1; tBuAla = CC(C)(C)C[C@H](N)C(=O)O; 3Thi = N[C@@H](Cc1ccsc1)C(=O)O; S8 = C=CCCCCCC[C@](C)(N)C(=O)O; Thr(ol) = C[C@@H](O)[C@H](N)CO; Cba = N[C@@H](CC1CCC1)C(=O)O; PyrS2(4) = not defined here; Prolinol = OC[C@@H]1CCCN1*

T1: B-cat-Halo (beta-catenin HaloTag NanoBRET construct expressed in HEK293 cells) (UniProt P35222 1-781)
T1 sequence (looked up): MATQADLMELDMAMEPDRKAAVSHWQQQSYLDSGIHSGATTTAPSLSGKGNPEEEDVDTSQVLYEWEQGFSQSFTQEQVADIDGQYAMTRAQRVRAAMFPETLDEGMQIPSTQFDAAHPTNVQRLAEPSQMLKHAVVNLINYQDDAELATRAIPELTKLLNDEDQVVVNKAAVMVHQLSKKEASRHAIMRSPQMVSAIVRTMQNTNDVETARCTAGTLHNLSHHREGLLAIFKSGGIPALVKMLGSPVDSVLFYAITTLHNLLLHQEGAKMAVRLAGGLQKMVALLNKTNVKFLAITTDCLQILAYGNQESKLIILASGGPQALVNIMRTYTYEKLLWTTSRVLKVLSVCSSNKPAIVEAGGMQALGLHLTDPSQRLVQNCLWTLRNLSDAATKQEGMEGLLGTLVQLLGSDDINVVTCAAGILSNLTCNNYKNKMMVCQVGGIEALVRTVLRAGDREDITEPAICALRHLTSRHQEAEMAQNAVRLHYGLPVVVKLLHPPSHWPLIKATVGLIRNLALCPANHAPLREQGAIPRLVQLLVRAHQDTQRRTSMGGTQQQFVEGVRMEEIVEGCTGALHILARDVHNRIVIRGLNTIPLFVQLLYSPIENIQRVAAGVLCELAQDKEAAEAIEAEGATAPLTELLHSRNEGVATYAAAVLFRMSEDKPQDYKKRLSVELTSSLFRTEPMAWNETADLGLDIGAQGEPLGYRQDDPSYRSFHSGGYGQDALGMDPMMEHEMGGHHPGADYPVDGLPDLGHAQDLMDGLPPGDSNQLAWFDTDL

T2: B-cat-Halo (beta-catenin HaloTag NanoBRET construct expressed in HEK293 cells) (UniProt P35222 1-781, HaloTag NanoBRET 618 Ligand bound in the assay)
T2 sequence (looked up): T1 sequence (looked up)

T3: beta-catenin, full-length (Uniprot ID P35222) (Homo sapiens (Human), UniProt P35222 2-781)
T3 construct: tags are not described; also called bCat; B-Catenin
T3 sequence: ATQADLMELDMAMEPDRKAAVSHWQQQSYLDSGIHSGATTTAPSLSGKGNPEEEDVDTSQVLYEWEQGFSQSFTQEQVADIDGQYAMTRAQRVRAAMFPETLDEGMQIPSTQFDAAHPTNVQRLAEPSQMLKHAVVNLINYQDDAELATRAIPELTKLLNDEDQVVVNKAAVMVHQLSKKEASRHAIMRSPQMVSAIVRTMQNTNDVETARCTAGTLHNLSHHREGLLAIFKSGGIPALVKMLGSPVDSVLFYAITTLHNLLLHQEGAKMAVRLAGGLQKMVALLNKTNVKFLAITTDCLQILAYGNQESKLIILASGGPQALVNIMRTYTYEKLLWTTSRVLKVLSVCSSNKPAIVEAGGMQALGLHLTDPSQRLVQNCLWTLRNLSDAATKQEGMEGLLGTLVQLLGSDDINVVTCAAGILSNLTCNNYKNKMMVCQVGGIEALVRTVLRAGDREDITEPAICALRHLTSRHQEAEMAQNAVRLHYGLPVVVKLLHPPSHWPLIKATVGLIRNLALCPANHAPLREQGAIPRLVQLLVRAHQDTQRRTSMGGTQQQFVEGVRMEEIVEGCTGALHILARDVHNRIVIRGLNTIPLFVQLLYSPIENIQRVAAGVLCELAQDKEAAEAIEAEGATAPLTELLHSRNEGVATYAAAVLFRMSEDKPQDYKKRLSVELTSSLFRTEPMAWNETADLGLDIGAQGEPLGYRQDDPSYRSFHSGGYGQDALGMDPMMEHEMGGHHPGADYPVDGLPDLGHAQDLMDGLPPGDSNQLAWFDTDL

B1: I-1901 (peptide)
peptide: Ac-[αAllylPro]D[tBuAla][B5(5)]D[Phe(3-COOH)]SAFL[PyrS2][Phe(2-Cl)][Bta]S-NH2
modifications: staple 1-4, 4-11; not fully specified; printed as Ac-PL3-Asp-Npg-B5-Asp-3COOHF-Ser-Ala-Phe-Leu-PyrS2-2C1F-BztA-Ser-NH2
B2: I-1905 (peptide)
peptide: Ac-[αAllylPro]D[tBuAla][B5(12)]D[Phe(3-COOH)]AAFL[PyrS2(4)][Phe(2-Cl)][Bta]S[Thr(ol)]
modifications: staple 1-4, 4-11; not fully specified; printed as Ac-PL3-Asp-Npg-B5-Asp-3COOHF-Ala-Ala-Phe-Leu-PyrS2-2C1F-BztA-Ser-Thro1; reading uncertain
B3: I-1911 (peptide)
peptide: Ac-[αAllylPro]D[tBuAla][B5(12)]D[Phe(3-COOH)]KAFL[PyrS2(4)][3Thi][Bta]F-NH2
modifications: staple 1-4, 4-11; not fully specified; printed as Ac-PL3-Asp-Npg-B5-Asp-3COOHF-Lys-Ala-Phe-Leu-PyrS2-3Thi-BztA-Phe-NH2; reading uncertain
B4: I-1906 (peptide)
peptide: Ac-[αAllylPro]D[tBuAla][B5(12)]D[Phe(3-COOH)]AAFL[PyrS2(4)][Phe(2-Cl)][Bta]S-Prolinol
modifications: staple 1-4, 4-11; not fully specified; printed as Ac-PL3-Asp-Npg-B5-Asp-3COOHF-Ala-Ala-Phe-Leu-PyrS2-2C1F-BztA-Ser-Prool; reading uncertain
B5: I-1890 (peptide)
peptide: Ac-[αAllylPro]D[tBuAla][B5(5)]DRAAFN[PyrS2][3Thi][Bta]Q-NH2
modifications: staple 1-4, 4-11; not fully specified; printed as Ac-PL3-Asp-Npg-B5-Asp-Arg-Ala-Ala-Phe-Asn-PyrS2-3Thi-BztA-Gln-NH2
B6: I-1891 (peptide)
peptide: Ac-[αAllylPro]D[tBuAla][B5(5)]DRAAFN[PyrS2][3Thi][Bta]Q-NH2
modifications: staple 1-4, 4-11; not fully specified; printed as Ac-PL3-Asp-Npg-B5-Asp-Arg-Ala-Ala-Phe-Asn-PyrS2-3Thi-BztA-Gln-NH2
B7: I-1909 (peptide)
peptide: Ac-[αAllylPro]D[tBuAla][B5(12)]D[Phe(3-COOH)][Lys(iPr)]AFL[PyrS2(4)][3Thi][Bta]F-NH2
modifications: staple 1-4, 4-11; not fully specified; printed as Ac-PL3-Asp-Npg-B5-Asp-3COOHF-iPrLys-Ala-Phe-Leu-PyrS2-3Thi-BztA-Phe-NH2; reading uncertain
B8: I-1904 (peptide)
peptide: Ac-[αAllylPro]D[tBuAla][B5(12)]D[Phe(3-COOH)]AAFL[PyrS2(4)][Phe(2-Cl)][Bta]N-NH2
modifications: staple 1-4, 4-11; not fully specified; printed as Ac-PL3-Asp-Npg-B5-Asp-3COOHF-Ala-Ala-Phe-Leu-PyrS2-2C1F-BztA-Asn-NH2; reading uncertain
B9: I-1912 (peptide)
peptide: Ac-[αAllylPro]D[tBuAla][B5(5)]D[Phe(3-COOH)]QAFL[PyrS2(4)][3Thi][Bta]F-NH2
modifications: staple 1-4, 4-11; not fully specified; printed as Ac-PL3-Asp-Npg-B5-Asp-3COOHF-Gln-Ala-Phe-Leu-PyrS2-3Thi-BztA-Phe-NH2; reading uncertain
B10: I-1910 (peptide)
peptide: Ac-[αAllylPro]D[tBuAla][B5(12)]D[Phe(3-COOH)]HAFL[PyrS2(4)][3Thi][Bta]F-NH2
modifications: staple 1-4, 4-11; not fully specified; printed as Ac-PL3-Asp-Npg-B5-Asp-3COOHF-His-Ala-Phe-Leu-PyrS2-3Thi-BztA-Phe-NH2; reading uncertain
B11: I-1898 (peptide)
peptide: Ac-[αAllylPro]D[tBuAla][B5(5)]D[Phe(3-COOH)]AAFL[PyrS2][Cba][Bta]S-NH2
modifications: staple 1-4, 4-11; not fully specified; printed as Ac-PL3-Asp-Npg-B5-Asp-3COOHF-Ala-Ala-Phe-Leu-PyrS2-Cba-BztA-Ser-NH2
B12: I-1903 (peptide)
peptide: Ac-[αAllylPro]D[tBuAla][B5(12)]D[Phe(3-COOH)]AAFS[PyrS2(4)][Phe(2-Cl)][Bta]S-NH2
modifications: staple 1-4, 4-11; not fully specified; printed as Ac-PL3-Asp-Npg-B5-Asp-3COOHF-Ala-Ala-Phe-Ser-PyrS2-2C1F-BztA-Ser-NH2; reading uncertain
B13: I-1902 (peptide)
peptide: Ac-[αAllylPro]D[tBuAla][B5(5)]D[Phe(3-COOH)]SAFL[PyrS2(4)][Phe(2-Cl)][Bta]S-NH2
modifications: staple 1-4, 4-11; not fully specified; printed as Ac-PL3-Asp-Npg-B5-Asp-3COOHF-Ser-Ala-Phe-Leu-PyrS2-2C1F-BztA-Ser-NH2; reading uncertain
B14: I-1815 (peptide)
peptide: Ac-[αAllylPro]D[tBuAla][B5(19)]DDAAFL[PyrS1][3Thi][Bta]Q-NH2
modifications: staple 1-4, 4-11; not fully specified; printed as Ac-PL3-Asp-Npg-B5-Asp-Asp-Ala-Ala-Phe-Leu-PyrS1-3Thi-BztA-Gln-NH2
B15: I-286: Ac-PL3-Asp-Ala-B5-Asp-Asp-Ala-Ala-Phe-Ala-S8-Phe-Trp-Ala-NH2 (peptide)
peptide: XDAXDDAAFAXFWA
modifications: not fully specified; N-terminal Ac; PL3 at 1, B5 at 4, S8 at 11 (olefin-metathesis staples 1-4 and 4-11); C-terminal amide
notes: Stapled (stitched) peptide
B16: I-292: Ac-PL3-Asp-Ala-B5-Asp-Asp-Ala-Ala-Phe-Val-S8-Phe-Trp-Ala-NH2 (peptide)
peptide: XDAXDDAAFVXFWA
modifications: not fully specified; N-terminal Ac; PL3 at 1, B5 at 4, S8 at 11 (olefin-metathesis staples 1-4 and 4-11); C-terminal amide
notes: Stapled (stitched) peptide
B17: I-285: Ac-PL3-Asp-Ala-B5-Asp-Asp-Ala-Ala-Phe-Val-S8-His-Trp-Gln-NH2 (peptide)
peptide: XDAXDDAAFVXHWQ
modifications: not fully specified; N-terminal Ac; PL3 at 1, B5 at 4, S8 at 11 (olefin-metathesis staples 1-4 and 4-11); C-terminal amide
notes: Stapled (stitched) peptide
B18: I-291: Ac-PL3-Asp-Ala-B5-Asp-Asp-Ala-Ala-Phe-Val-S8-Phe-Trp-Ala-NH2 (peptide)
peptide: XDAXDDAAFVXFWA
modifications: not fully specified; N-terminal Ac; PL3 at 1, B5 at 4, S8 at 11 (olefin-metathesis staples 1-4 and 4-11); C-terminal amide
notes: Stapled (stitched) peptide

target: T1, B-cat-Halo (beta-catenin HaloTag …); assay: cell-based or functional assay

NanoBRET Abs IC50	Binder
4.9 µM	B1
9.7 µM	B2
> 20 µM	B3
15.5 µM	B4
> 20 µM	B5
> 20 µM	B6
> 20 µM	B7
4.2 µM	B8
11.5 µM	B9
13.8 µM	B10
10.9 µM	B11
6.4 µM	B12
7.7 µM	B13

target: T2, B-cat-Halo (beta-catenin HaloTag …); assay: cell-based or functional assay

NanoBRET Abs IC50	Binder
> 20 µM	B14

target: T3, beta-catenin, full-length (Uniprot ID …); assay: fluorescence polarization competition, displacement of 5FAM-TCF4 10-53 from full-length beta-catenin
Procedure: The plate was incubated protected from light for 60 minutes at 20° C. prior to read. Reads were performed on a CLARIOstar plate reader (BMG Labtech) in duplicate, and data were fitted to a 1:1 binding model with hill slope using an in-house script. All provided concentrations are final concentrations.

IC50	Binder
5 µM	Ac-[αAllylPro]DA[B5(17)]DDAA[Phe(3,4-F2)]V[S8]FWQ-NH2 (staple 1-4, 4-11, Stapled (stitched) peptide) [I-267: Ac-PL3-Asp-Ala-B5-Asp-Asp-Ala-Ala-34FF-Val-S8-Phe-Trp-Gln-NH2]
3.76 µM	Ac-[αAllylPro]DA[B5(4)]DDAA[Phe(3-F)]V[S8]FWQ-NH2 (staple 1-4, 4-11; also: staple isomer composition, later HPLC peak, Stapled (stitched) peptide) [I-265: Ac-PL3-Asp-Ala-B5-Asp-Asp-Ala-Ala-3FF-Val-S8-Phe-Trp-Gln-NH2]
4.48 µM	B15
1.87 µM	B16
5 µM	B17
3.13 µM	B18
5 µM	Ac-[αAllylPro]DA[B5(17)]DDAA[Phe(4-F)]V[S8]FWQ-NH2 (staple 1-4, 4-11, Stapled (stitched) peptide) [I-266: Ac-PL3-Asp-Ala-B5-Asp-Asp-Ala-Ala-4FF-Val-S8-Phe-Trp-Gln-NH2]
